Values of other authors, collected in publication PMC2845642.
Where two headings read alike, the source gives them in different places.

Tests used:
[1] = biological target: CD28 (Homo sapiens) (UniProt P10747)
[2] = biological target: CD28 (Homo sapiens) (UniProt P10747); remark: listed apart in the source

Row | Kd [1] [µM] | Kd [2] [µM] | Substance
1 | 4 | – | CD80 (from UniProt P33681)
2 | – | 20 | CD86 (from UniProt P42081)
